US20150118184A1 (Chugai, published 2015)
Residue numbers refer to the chain shown, from its start.

T1: LAMP5 (endogenous, on KHM-1B multiple myeloma cells and in cancer cell line lysates) (human, UniProt Q9UJQ1 30-280)
T1 construct: Endogenous LAMP5 of the cell lines; also called BAD-LAMP; C20orf103
T1 sequence: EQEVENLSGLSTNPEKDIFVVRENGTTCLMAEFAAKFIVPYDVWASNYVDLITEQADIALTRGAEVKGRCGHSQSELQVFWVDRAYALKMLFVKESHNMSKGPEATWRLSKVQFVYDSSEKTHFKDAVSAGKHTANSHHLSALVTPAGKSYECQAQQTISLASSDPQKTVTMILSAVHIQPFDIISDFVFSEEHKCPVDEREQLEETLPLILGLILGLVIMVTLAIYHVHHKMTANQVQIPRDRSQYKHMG

T2: mouse LAMP5 having a V5 tag added to the N-terminal thereof, expressed on CHO cells (mLAMP5 CHO) (mouse, UniProt Q9D387 30-280)
T2 construct: also called mouse-origined LAMP5; V5-mLAMP5
T2 sequence: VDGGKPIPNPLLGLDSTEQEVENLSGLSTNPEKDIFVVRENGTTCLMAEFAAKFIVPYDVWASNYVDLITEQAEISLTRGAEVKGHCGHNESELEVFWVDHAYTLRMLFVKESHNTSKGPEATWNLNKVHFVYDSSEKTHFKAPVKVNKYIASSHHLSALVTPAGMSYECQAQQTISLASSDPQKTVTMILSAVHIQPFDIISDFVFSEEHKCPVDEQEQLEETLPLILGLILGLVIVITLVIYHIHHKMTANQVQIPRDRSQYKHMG

B1: anti-LAMP5 monoclonal antibody D2 (antibody, mouse IgG1, V domains shown)
VH: EVKLEESGGGLVQPGGSMKLSCTASGFTFSDAWMDWVRQSPEKGLEWVAEIRGKADNHATYYAESVKGRFTISRDDSKSSVYLQMNSLRTEDTAIYYCIPYYRYAMDYWGQGTSVTVSS
VL: QIVLTQSPAIMSASPGEKVTITCTASSSVSYMHWFQQKPGTSPKLWIYATSYLASGVPTRFSGSGSGTSYSLTISRMEAEDAATYYCQQKSNYPWTFGGGTNLEIK
notes: also called clone D2; D2 antibody
B2: anti-LAMP5 monoclonal antibody D1 (antibody, mouse IgG1, V domains shown)
VH: EIQLQQSGPDLVKPGASVKVSCKASGFAFSTYNMYWVKQSHGKSLEWIGYIDPYNGDITYNQKFKGKATLTVDKSSSTAYMHLNSLTSEDSAVYYCARRDYFYAMDYWGQGTSVTVSS
VL: DIVMTQSHKFMSTSVGDRVSITCKASQGVGTAVAWYQQKPGQSPKLLIYWASTRHTGVPDRFTGSGSGTDFTLSVTNVQSEDLADYFCHQYSSYPLTFGSGTKLELK
notes: also called clone D1; D1 antibody
B3: anti-LAMP5 monoclonal antibody D10 (antibody, V domains shown)
VH: B2 VH with D10E, F27Y, S30T, T31S, D57G, T59S
VL: B2 VL with S74T, V75I, H89Q
notes: also called clone D10; D10 antibody
B4: anti-LAMP5 monoclonal antibody D9 (antibody, V domains shown)
VH: EVKLVESGGGLVKPGGSLKLSCAASGFTFSSYAMSWVRQTPEKRLEWVASISSGGSTYYPDSVKGRFTISRDNARNILYLQMSSLRSEDTAMYYCARLITTRFAYWGQGTLVTVSA
VL: ENVLTQSPAIMSASPGEKVTMTCRASSSVSSSYLHWYQQKSGASPKLWIYSTSNLASGVPARFSGSGSGTSYSLTISSVEAEDAATYYCQQYSGYPLTFGSGTKLEIK
notes: also called clone D9; D9 antibody

Assays:
[1] = biological target: T1, LAMP5 (endogenous, on KHM-1B multiple …); assay: FACS on KHM-1B cells with or without IL-6 stimulation, 10 µg/mL antibody
Procedure: (§1) Binding of the anti-LAMP5 monoclonal antibody produced in Example 2 to LAMP5 and mLAMP5 was evaluated by FACS. First, LAMP5 CHO (Example 2) or mLAMP5 CHO was suspended in FACS/PBS (PBS(−) comprising 0.2% bovine serum albumin (BSA) and 0.1% sodium azide) followed by disseminating into the wells of a 96-well round bottom plate at 5×10⁴ cells per well. After adding anti-LAMP5 monoclonal antibody to each well to a final concentration of 10, 2, 0.4, 0.08 or 0.016 μg/ml, the mixture was allowed to react for 1 hour on ice. After reacting, the cell suspensions were washed with FACS/PBS and allowed to react for 1 hour with FITC-labeled anti-mouse IgG antibody on ice. After reacting, the cells were washed with FACS/PBS and then suspended in FACS/PBS comprising 10 μg/ml of propidium iodide (Sigma-Aldrich Co. LLC.). The staining intensity of the cells was measured with a flow cytometer. Only viable cells not stained with propidium iodide were used in data analysis. As a result, clones D1, D2, D9 and D10 all bound concentration-dependently to LAMP5 (FIG. 2A). Clones D1, D2 and D10 in particular bound strongly in comparison with clone D9 (FIG. 2A). […] Clone D10 only bound weakly to mLAMP5 (FIG. 2B).
Next, LAMP5 expression was measured by FACS in KHM-1B cells (with or without IL-6 stimulation). FACS was carried out in the same manner as Example 4 using anti-LAMP5 monoclonal antibodies D1, D2, D9 and D10 and a negative reference in the form of IgG1κ (Pharmingen Inc., Cat. No. 553447) at concentrations of 10 μg/mL. As a result, LAMP5 was detected on the cell membrane of KHM-1B cells, and the expressed amount thereof was confirmed to be increased by IL-6 stimulation (FIG. 4).

[2] = biological target: T2, mouse LAMP5 having a V5 tag added to …; assay: FACS on mLAMP5 CHO cells, FITC anti-mouse IgG
Procedure: as §1

Binder | binding result [1] | binding result [2]
B1 | binds | 
B2 | binds | no binding (tested: 10 µg/ml (highest concentration tested))
B3 | binds | 
B4 | binds | no binding (tested: 10 µg/ml (highest concentration tested))
